Measured values as given in PMC7323979.

Target: α-synuclein fibrils (preformed seeds) (human) (UniProt P37840)

bovine γB-crystallin, sequence (P02526 whole entry): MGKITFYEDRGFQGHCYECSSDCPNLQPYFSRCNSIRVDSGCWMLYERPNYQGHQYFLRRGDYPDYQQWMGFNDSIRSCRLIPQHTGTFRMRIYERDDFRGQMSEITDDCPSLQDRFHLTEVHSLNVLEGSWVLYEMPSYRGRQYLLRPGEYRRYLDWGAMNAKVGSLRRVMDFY

Question: How did the lowest crystallin concentration which efficiently inhibits α-syn fibril formation (ThT, 20 μM α-syn monomer, 1 μM α-syn seeds, pH 5.5, 37°C); the same value is also printed as 4.75 μM monomers turn out when “bovine γB-crystallin (from UniProt P02526 1-175) (natural protein)” was run?
Answer: 0.1 mg/ml
